A word on the stoichiometry N: it is the number of molecules, sites or subunits per partner or assembly.

This experiment concerns the target Oryza sativa hyperosmolality-gated protein OsOSCA1.2 (Oryza sativa (rice)). Kind of experiment: SEC-MALS.

In the case of “Oryza sativa hyperosmolality-gated protein OsOSCA1.2 (natural protein)”, the stoichiometry N amounted to 2.

Values taken from doi:10.1101/505453.
